The values below come from patent US20250027068.

B1: PRT-479 (protein)
chain: MITSVWTKGVTPPTDFIYGEDVLHAPYKAGQGWYDITKAFDGGDDLLCGAATAGNMLHWWFDQNKEQIENYLKKHPEKQKINFNGEQMFDVKEAIDTKDSQTNSELFNYFKEKAFPYLSTKHLGVFPDHVIDMFINGYRLSLTNHGPTPVKRQEKDPRGGIFDAVFGRGDQTKLLTNRHDLKNKTLNEISQLIKQELTEGKALGISHTYANVRINHVINLWGADFDAEGNLEAIYVTDSDSNASIGMKKYFVGVNSNGKVAISAKEIEEDNIGAQVLGLFTLSTGQKIWNKTNLEHHHHHH
B2: PRT-467 (protein)
chain: MITSVWTKGVTPPTDFIKGEDVFHAPYKAGQGWYDITKAFDGGDDLLCGAATAGNMLHWWFDQNKDQIERYLKEHPEKQKINFNGEQMFDVKEAIDTKDSQTNSELFNYFKEKAFPYLSTKHLGVFPDHVLDMFINGYRLSLTNHGPTPVKRQEKDPRGGIFDAVFGRGDQTKLLTSRHDLKNKTLNEISQLIKQELTEGKALGLSHTYANVRINHVINLWGADFDAEGNLEAIYVTDSDSNASIGMKKYFVGVNSAGKVAISAKEIKEDNIGAQVLGLFTLSTGQKIWNKTNLEHHHHHH
B3: PRT-477 (protein)
chain: MVTSVWTKGVTPPTNFTYGEDVLHAPYVANQGWYDITKTFNGKDDLLCGAATAGNMLHWWFDQNKEQIENYLKKHPEKQKINFNGEQMFDVKEAIDTKDSQLDSKLFEYFKEKAFPYLSTKHLGVFPDHVIDMFINGYRLSLTNHGPTPVKRGSKDPRGGIFDAVFTRGDQSKLLTNRHDLKNKTLKEISDLIKQELTEGKALGISHTYANVRINHVINLWGADFDAEGNLEAIYVTDSDSNASIGMKKYFVGVNSNGKVAISAKEIEEDNIGAQVLGLFTLSTGQDIWNQTNLEHHHHHH
B4: PRT-433 (protein)
chain: MSQTEDSESLQRLRDIEDFQAEKKKQNVVYTKWLDGVDVKDHDFRKIVDGNIAYYATPLLNGRGFYDINKDFNRDSDKCAAAVAANMFHYWLDRNRDNVDRFLRQNPEKHGIIELPDGQLKLSDFLNTYESDDGYRDKSKLFDFISNNFNGPVWTDKLLDNYINGYAYNYKYGRTIEDPTKNTSKINFFKEVFNEKILTNNHSIRNQNEFSVLLIEALYTGKAIGLSYGPAGLRHSLGHIISVWGADLDADGNVVAIYVTDSDDKKLTIGDERVGLKRYKISTDDEGRLRLTAYEETHNTGGQIRGLWTLDTGKQAWADYFDKTEQTGTDQAEQ
B5: PRT-434 (protein)
chain: MSQTEDSESLQRLRDIEDFQAEKKKQNVVYTKWLDGVDVKDHDFRKIVDGNIAYYATPLLNGRGFYDINKDFNRDSDKCAAAVAANMFHYWLDRNRDNVDRFLRQNPEKHGIIELPDGQLKLSDFLNTYESDDGYRDKSKLFDFISNNFNGPVWTDKLLDNYINGYAYNYKYGRTIEDPTKNTSKINFFKEVFNEKILTNNHSIRNQNEFSVLLSEALYTGKAIGLSYGPAGLRHGLGHIISVWGADLDADGNVVAIYVTDSDDKKLTIGDERVGLKRYKISTDDEGRLRLTAYEETHNTGGQIRGLWTLDTGKQAWADYFDKTEQTGTDQAEQ
B6: PRT-598 (protein)
chain: MANQEIRYSEETPSTITSVWTKGVTPPTDFIQNEDVLHAPYIANQGWYDITKTFNGKDDLLCGAATAGNMLHWWFDQNKEQIENYLKKHPEKQKINFNGEQMFDVKEAIDTKDSQTDSALFEYFKDKAFPYLSTKHLGVFPDHVIDMFINGYRLSLTNHGPTPVKRGTKDPRGGIFDAVFTRGDQSKLLTSRHDFKEKTLNEISDLIKQELTEGKALGLSHTYANVRINHVINLWGADFNAEGNLEAIYVTDSDSNASIGMKKYFVGVNSAGKVAISAKEIEGDNIGAQVLGLFTLSTGQDIWNQTNLEHHHHHH
B7: PRT-518 (protein)
chain: MVTSVWTKGVTPPTDFIKGEDVFHAPYKAGQGWYDITKTFNGKDNLLCGAATAGNMLHWWFDQNKEYIEAYLKKHPEKQKIIFNNQELFDLKAAINTKGSQKNSELFNYFRDKAFPNLSARRLGVFPDLVLDMFINGYYLNVTKTQTTDVNRTYQEKDKRGGIFDAVFTRGVQSKLLTSRHDFKEKGLKEISDLIKQELTEGKALGLSHTYANVRINHVINLWGADFDSDGNLKAIYVTDSDTNASIGMKKYFVGVNSAGKVAISAKEIKEDNIGAQVLGLFTLSTGQDIWNQTNLEHHHHHH
B8: PRT-525 (protein)
chain: MITSVWTKGVTPPAKFTQGEDVFHAPYVANQGWYDITKTFNGKDNLLCGAATAGNMLHWWFDQNKEEIEAYLKKHPEKQKIIFNNQELFDLKAVINTKDSQTNSALFNYFKDKAFPNLSARRLGVFPDLVLDMFINGYYLNVYKTQTTDVNRTYQTKDRRGGIFDAVFTRGVQSKLLTERHDLKNKTLKEISDLIKQELTEGKALGLSHTYANVRINHVINLWGADFDSNGNLEAIYVTDSDTNASIGMKKYFVGVNSAGKVAISAKEIKEDNIGAQVLGLFTLSTGQDIWNQTNLEHHHHHH
B9: PRT-522 (protein)
chain: MITSVWTKGVTPPTDFIKGEDVFHAPYKAGQGWYDITKTFNGKDNLLCGAATAGNMLHWWFDQNKEEIEAYLKKHPEKQKIIFNNQELFDLKAVINTKDSQTNSALFNYFKDKAFPNLSARRLGVFPDLVLDMFINGYYLNVYKTQTTDVNRTYQTKDRRGGIFDAVFTRGVQSKLLTERHDFKEKTLKEISDLIKQELTEGKALGLSHTYANVRINHVINLWGADFDSNGNLEAIYVTDSDTNASIGMKKYFVGVNSAGKVAISAKEIKEDNIGAQVLGLFTLSTGQDIWNQTNLEHHHHHH
B10: PRT-486 (protein)
chain: MVTSVWTKGVTPPTDFIKGEDVFHAPYKAGQGWYDITKTFNGKDNLLCGAATAGNMLHWWFDQNKDQIERYLKEHPEKQKIIFNNQELFDLKAAIDTKDSQTDSKLFEYFKEKAFPYLSTKHLGVFPDHVLDMFINGYRLSLTNHGPTPVKEGSKDKRGGIFDAVFTRGVQSKLLTSRHDFKEKTLKEISDLIKQELTEGKALGLSHTYANVRINHVINLWGADFDSEGNLKAIYVTDSDTNASIGMKKYFVGVNSAGKVAISAKEIKEDNIGAQVLGLFTLSTGQDIWNQTNLEHHHHHH
B11: PRT-504 (protein)
chain: MITSVWTKGVTPPTDFIKGEDVFHAPYKAGQGWYDITKAFDGGDDLLCGAATAGNMLHWWFDQNKEYIEAYLKKHPEKQKIMFGDQELLDVRKAINTKGSQKNSELFNYFRDKAFPNLSARRLGVMPDLVLDMFINGYYLNVTKTQTTDVNRTYQEKDKRGGIFDAVFTRGDQSKLLTSRHDLKNKGLNEISQLIKQELTEGKALGLSHTYANVRINHVINLWGADFDADGNLEAIYVTDSDSNASIGMKKYFVGVNSAGKVAISAKEIKEDNIGAQVLGLFTLSTGQDIWNQTNLEHHHHHH
B12: PRT-602 (protein)
chain: MANQEIRYSEVTPYHITSVWTKGVTPPANFTQGEDVFHAPYVANQGWYDITKTFNGKDDLLCGAATAGNMLHWWFDQNKDQIERYLEEHPEKQKINFNGEQMFDVKEAIDTKDSQTDSKLFEYFKEKAFPYLSTKHLGVFPDHVIDMFINGYRLSLTNHGPTPVKEGSKDPRGGIFDAVFTRGDQSKLLTSRHDFKEKTLKEISDLIKQELTEGKALGLSHTYANVRINHVINLWGADFDSEGNLKAIYVTDSDSNASIGMKKYYVGVNSAGKVAISAKEIEEDNIGAQVLGLFTLSTGQDIWNQTNLEHHHHHH

The series addresses pooled human IgG (human IgG1, 2, 3 and 4).
Regarding B1, the Enzyme Activity Endpoint Assay: Fab′2 was 1340 ng/µL, the Enzyme Activity Endpoint Assay: Fc stood at 481 ng/µL, the Enzyme Activity Endpoint Assay: IgG worked out at 0 ng/µL and the Enzyme Activity Endpoint Assay: scIgG is 0 ng/µL.

B2 returned an Enzyme Activity Endpoint Assay: Fab′2 of 685 ng/µL, an Enzyme Activity Endpoint Assay: Fc of 374 ng/µL, an Enzyme Activity Endpoint Assay: IgG of 57 ng/µL and an Enzyme Activity Endpoint Assay: scIgG of 375 ng/µL.

B3 returned an Enzyme Activity Endpoint Assay: Fab′2 of 543 ng/µL, an Enzyme Activity Endpoint Assay: Fc of 277 ng/µL, an Enzyme Activity Endpoint Assay: IgG of 0 ng/µL and an Enzyme Activity Endpoint Assay: scIgG of 224 ng/µL.

In turn, B4 came in with an Enzyme Activity Endpoint Assay (purified): Fab′2 of 575 ng/µL, an Enzyme Activity Endpoint Assay (purified): Fc of 489 ng/µL, an Enzyme Activity Endpoint Assay (purified): IgG of 0 ng/µL and an Enzyme Activity Endpoint Assay (purified): scIgG of 224 ng/µL. Also, the Enzyme Activity Endpoint Assay: Fab′2 turned out to be 575 ng/µL, the Enzyme Activity Endpoint Assay: Fc is 489 ng/µL, the Enzyme Activity Endpoint Assay: IgG came out at 0 ng/µL and the Enzyme Activity Endpoint Assay: scIgG was 224 ng/µL.

As to B5, the Enzyme Activity Endpoint Assay (purified): Fab′2 came to 567 ng/µL, the Enzyme Activity Endpoint Assay (purified): Fc stood at 314 ng/µL, the Enzyme Activity Endpoint Assay (purified): IgG came out at 0 ng/µL and the Enzyme Activity Endpoint Assay (purified): scIgG was 234 ng/µL. Further, the Enzyme Activity Endpoint Assay: Fab′2 worked out at 567 ng/µL, the Enzyme Activity Endpoint Assay: Fc is 314 ng/µL, the Enzyme Activity Endpoint Assay: IgG was determined as 0 ng/µL and the Enzyme Activity Endpoint Assay: scIgG is 234 ng/µL.

As for B6, the Enzyme Activity Endpoint Assay (purified): Fab'2 is 567 ng/µL, the Enzyme Activity Endpoint Assay (purified): Fc turned out to be 172 ng/µL, the Enzyme Activity Endpoint Assay (purified): IgG worked out at 0 ng/µL and the Enzyme Activity Endpoint Assay (purified): scIgG worked out at 213 ng/µL. The Enzyme Activity Endpoint Assay: Fab′2 was 567 ng/µL, the Enzyme Activity Endpoint Assay: Fc was 172 ng/µL, the Enzyme Activity Endpoint Assay: IgG came to 0 ng/µL and the Enzyme Activity Endpoint Assay: scIgG is 213 ng/µL.

B7 yielded an Enzyme Activity Endpoint Assay: Fab′2 of 1220 ng/µL, an Enzyme Activity Endpoint Assay: Fc of 423 ng/µL, an Enzyme Activity Endpoint Assay: IgG of 0 ng/µL and an Enzyme Activity Endpoint Assay: scIgG of 0 ng/µL.

The protein B8 showed an Enzyme Activity Endpoint Assay: Fab′2 of 1340 ng/µL, an Enzyme Activity Endpoint Assay: Fc of 386 ng/µL, an Enzyme Activity Endpoint Assay: IgG of 0 ng/µL and an Enzyme Activity Endpoint Assay: scIgG of 0 ng/µL.

Protein B9 displayed an Enzyme Activity Endpoint Assay: Fab′2 of 736 ng/µL, an Enzyme Activity Endpoint Assay: Fc of 253 ng/µL, an Enzyme Activity Endpoint Assay: IgG of 0 ng/µL and an Enzyme Activity Endpoint Assay: scIgG of 0 ng/µL.

In turn, B10 showed an Enzyme Activity Endpoint Assay: Fab′2 of 145 ng/µL, an Enzyme Activity Endpoint Assay: Fc of 210 ng/µL, an Enzyme Activity Endpoint Assay: IgG of 107 ng/µL and an Enzyme Activity Endpoint Assay: scIgG of 627 ng/µL.

Regarding B11, the Enzyme Activity Endpoint Assay: Fab′2 stood at 1310 ng/µL, the Enzyme Activity Endpoint Assay: Fc worked out at 442 ng/µL, the Enzyme Activity Endpoint Assay: IgG stood at 0 ng/µL and the Enzyme Activity Endpoint Assay: scIgG is 0 ng/µL.

Protein B12 registered an Enzyme Activity Endpoint Assay (purified): Fab'2 of 543 ng/µL, an Enzyme Activity Endpoint Assay (purified): Fc of 375 ng/µL, an Enzyme Activity Endpoint Assay (purified): IgG of 0 ng/µL and an Enzyme Activity Endpoint Assay (purified): scIgG of 212 ng/µL. Further, the Enzyme Activity Endpoint Assay: Fab′2 was 543 ng/µL, the Enzyme Activity Endpoint Assay: Fc worked out at 375 ng/µL, the Enzyme Activity Endpoint Assay: IgG is 0 ng/µL and the Enzyme Activity Endpoint Assay: scIgG amounted to 212 ng/µL.
